Experimental data reported in the NTF2 design screens of Basanta et al. (2020).

Experiment: protease stability score; higher = more stable; yeast display proteolysis, trypsin and chymotrypsin;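 note: log10 excess protease needed over predicted unfolded state with 0 meaning unfolded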
In the case of “DENAERVLREIVKALEQGDPDRWKQNVDPNVKFRVGDKDVHGREEIVKTLSSLHDQIRFHVKFEHMDNQGDKIRADARVHQNVDGRPLSSSVVVRLTVHNGRVQEMRMNMDEHYVRDEQK”, the protease stability score is reported as 0.068.
For “DENAQKLAREFMHAVREGNPEEIKKQVDPNAKMVVGDKEITGREEMSRQRERELREIEIDYRSVRVDVSGDKAKLDIKFERNDNGKPQQQQQTMTFVHQGDKIKHLVIKQHS”, the protease stability score was -0.373.
With “DENAVRVVKELWKALNHGNPDRVQQLADKDARVQVGDKDVHGREKMAKLVDTLKKEIRMDIKVHSISASNGRAKIDFKADEENNGKPQTYEATANVTIHNGKVVSMRVNKDQ” the protease stability score was -0.428.
For “DENDAKELRHFIEVMVRGDPSKLMQLADKDASFHIGEKQVHGREQISSEAEQRNREIKYEIKDLKVTVHGDKARVEAEMVKNHNGKPEHYRYVVTASLRNGKIKEVTVNKRQ”, the protease stability score was 0.875.
In the case of “DENDTARKIIKTLLDIMREGDEDKLRDQMDPNVRADVGDKTVHGREHAAKFLAHIVKRADHISITLKSLHNHNGRLRMQAEVRIVHNGRTERVTLEMVFRDHNGKLLIERMKYG”, the protease stability score is reported as 2.51.
“DENDVKRVLDKLKDNNWEDLVKLMDKDARVEIGDHTIHGRENVHQWMSTIEKQVDHFQIDTMTVKGDTLDANVRMVVNGRKIVFRLKVSLKNGRITRIRFQATDEEQHQQIRQMLR” showed a protease stability score of 1.29.
Work on “DENELELYKEVVEAENTGDPDEMKELVDPNVNVQVGDTTLHGMSELVKDAKRRRKQMRVDIKVTSMKAHNGRLEIRLEVVFEVNGRPTSDTITVTVHAHNGKVKEFNYHMDPDREKRQRS” yielded a protease stability score of 1.03.
Work on “DENELLKTFMDIFRRAIKTGDEKLLRTMMDKDVKARVGDKDVHGREEADKEFKKIWDHADHVDIKVKEVTINGDKAHVTMDAKFVVDGKSQKVNIHVKAEVKNGRLKAKHITMG” yielded a protease stability score of 2.03.
Sequence “DENEMVQLARKLARVLETNDSDKMREMIPPDASIEIGDRRLHGRESVEHLMKDMHKRIDHLTVDSVNVDNGRVHISARAKHNGRTRRVQFYALIHNGRIHVISFRTK” has a protease stability score of 1.34.
“DENENEEFARKFLENLRTGDPDKVMELVDPNAHVTIGDKEIKGRDQVKRWVEEHKRRADHLDVRDMSVDGEKITARIVVNINGENKYQKVEISIHNGHMTHMSVHDE” showed a protease stability score of 1.12.
In the case of “DENETAKDILKELVDILKNGDEDSFARMFDENARITVGDKTYTGRDEVRKYASQIHRRVDHIDVKLKSVTTNNGRIEVSARFVFQVDGKEDDRIFRLVVRKKGDKWVIERQSLE”, the protease stability score is reported as 1.64.
Sequence “DENHKVRELVDRFKEAYDSNDPDQYQNQFDKDATVTVGDKVFHGDEQAKQMAEDIMRNVDSFSISLKRVRVRGDKVRVSFKVVNNRNGRHKTIHVTAVFVFDNGRLRAKSWHFQ” has a protease stability score of 0.73.
Sequence “DENHLKEVAEEYNKVLNNGDPDKHVEQVDKDVDVKVGDKTYHGREDDKKWMEHFVERVDHLEVKRVEVRGDKVRIDMVVNVNGDNVKMQVNINLHNGRVQEVSVNPDQLEKFKQ” has a protease stability score of 0.22.
Work on “DENIKRTMSDFLHAVRDGDEDKLFKLADPNARMKYGDKDVHGMEEIVHQIKRLRRDASVDIHIKRVEVDGNRVDIKLEVVVNVNGRPQRYRFEIKVRFHNGRINALENNIDEDQLRKIES” yielded a protease stability score of 1.21.
“DENKEAKHFAQDINDAFQHNDPDHLNRLFDPNARMQIGDKEIRGKEQFKEENRRMVDQVDKVEVHVKEISVHNGRVEFVLIIRENHNGRNTQTSVEVNAEKQNGQIRIRQETEQ” gave a protease stability score of -0.307.
“DENKENEQFLRNYSKQLKDGNEEQLKRNFDPDAKVRYGDKDVSGREQIQKRIADEARKVDHYEITVKRVEKRGDHVRVEFDVRRHVNGKEESMDVVVIFVKHNGRMVISTVTID” showed a protease stability score of 0.036.
“DENKKAEKVARDYIKNAQTNNSESLKKLADPNVEVVIGDTTYTGTKDFVKFVQEIVRQADHISLNVRSVEVQGDKADVVAEVRVDFNGNQRRQDIRFHAQLQGDKVKLKMIQYK” gave a protease stability score of 1.06.
In the case of “DENKLKEVANRIVSAVRTNDPDHLANLFDKDDKFQIGEKQFHGHEELRKALEEIHQEVDRLHVKTYELHNGVVKIHVDMKYNGHEIKVVFYFTVHNGRLKYMEVKSQ”, the protease stability score is reported as -0.346.
With “DENLERQASRLISALLDNDPDLAVELVDENVKVQIGDKTVHGRETVHRHIETLVHHMRMDLDRFHVEVSGEKAKITLDVRFKINGKPIKDTLDVFFTAHNGKIKSVHFRMPEEHKKQVDR” the protease stability score was 0.899.
In the case of “DENLLDHMKRLFESGDWDDFSKNADKHVRVHIGEFNYRGREQARTVMNKLQKSADHVEIKRISVHNGQLQMDVTVVVNGETITVRIAAHVSNGRFVELRMSATDSKDKKALQKVQS”, the protease stability score is reported as 1.03.
For “DENLNTLMTQFMRAIQRGDEKRAKQLADPNAEIKYGDRSIHGMDQHADTIRKIRRKMRVDVTEVSHTTDGEQVNVEVTAIFNHNGEPKKRKFQFSATISNGRIKQVEVQDSQ”, the protease stability score was 0.654.
“DENQVDQLKELMDALQNNDERKANDLADKNARIRIGDKDVSGRSDMNRMVRELHERIRFTIRTVELHHQGDKVIAKVKVEMDHNGKPNDVTQNAEAKYHNGHLQRLFFDTRS” gave a protease stability score of -0.433.
With “DENREASTFMEQLQRNLRDGDHEEVVRMIDENARLEVGDKRIEGDHNVAHELMNQARRVDHFKMNITHLEVSNGRVKVVFIAKYEVNGRTEVNVYEQVLEIENGRLSLVSRRRK” the protease stability score was 0.545.
“DENRLRHLAHHMVEVLKTGNEEEIERLMDENVRLTYGDKEVHGRENVRQYIRQLREEIDHFSVQEIDVSGDKVTIVFTFIVNGQRVRAVLKVRFHNGRIVEATIEYTDEDQKRRADS” gave a protease stability score of 1.35.
Sequence “DENTEAQRFADNFNKLMNTGDEDTLNKLFDENAKVEVGDHRLHGREKLTKLAETNKQRFDHVKVDVDDIKVDNGTVQMRAVVIVYHNGRHHSVELEVVAQNHNGHARVKRMRVG” has a protease stability score of 0.553.
“DENTQKQIAKKVVDVIRNGDPKQLHDLFDPNARLNIGDRTYTGSKEFQKHAETLRRNVDHIQVKSIDVQGEHIHINMVLNVNGKQYNANFRVDVHNGKAKQMSVEYRDKEEYKTLKR” showed a protease stability score of 0.362.
With “DENVLKRVKELLRTNNWEELANKADKDVEMRVGDKEWRGREQVVRAHKKLYDRVDHFKIDSMHWRNGHLVVNFVAEVNGKRAVMVLEMKVHNGRIKRITLEARDKDDEEFIEEALR” the protease stability score was 1.47.
With “DENVRRLVEHLIRAVQSNDPDKVVENLDPNASIHVGEKRYHGEDRAKDMYETEKNQMRVQVRLTQLHVQGNHAKLRETVLIDHNGRPVNVSLDMSLIAHNGRVHEIHETVPEENRKERKG” the protease stability score was -0.029.
For “DENVVKEVEKLLEWIQSGNEQHIQEMMDKHARAQVGDQKVKGRKQVSTQWRRLAEDIDIHARVKDMKNDGNRAILEIHQVRHHNGDPDEFHANQIVTMHGDRIKHLELQNTK”, the protease stability score was -0.283.
Work on “DENVVKRVHDALQTNDWQQLADLFDKDARVHVGEFQLHGHEEVQKFVDLQRKQIDHMEVRSIEIDGERAEAEFVIRVDGRKREAEITIRANNGKAKEMKIQFTDKDFERKMREKME” yielded a protease stability score of 0.836.
Work on “DENVVKTAKNWFKAVQTGDTQEIHKNADPNARFQIGDKEYEGMEEYDKEQKERFEHMRVDYKDVTIRADGEHLHVKVKAKVNVNGQPHDVTFTIEARVDNGKFKEIVVKFDPDQQDRVEK” yielded a protease stability score of 0.338.
Work on “DEQAKEHIEEWMKAVKTGDEHTLREMADENAHFEIGDKTLHGMREFVKEQAERFRNIRVSYKRIDIRVQGNKVTVVVRFVVQHDGRPDERTVTFVFTFHNGQIENMQVKDEQ” yielded a protease stability score of 1.17.
For “DEQAKEVAEHWWEAVKKNDPTQAKENADKDVRARVGDQEIHGREDLATWLDQQKREMRIDLQIDSVSVSNGTLDIKAKMQVEDNGTPEHNTVEASMVVHNGRVKQFHIRVTK”, the protease stability score was 0.96.
“DEQAMSVAEELISALNTGNEDQVDRLMDPNAHLQVGDKRLHGREEVRRHVKTLKDQARFDMKVDSLRVQGEKVRLDATYTFEVNGRPREDRVIIDMTLTNGTVKRIRFNFDPDDWRKMEG” gave a protease stability score of 1.04.
Work on “DEQAQKRAKNFMTAIQSNDPQKVKENVDKDVNIRIGDRIVHGREQLEDYYSHWNTKMRQRVSFKRMDVQGNHVDLKAEASNTNNGQPNHFEVRITITFHNGKIEKANLEFQP” yielded a protease stability score of -0.422.
With “DEQATEVIERFLTALQRNDPHELKKQLDEDVRMNVGDKTLHGRDSFEKTWHEKLRTQRIELKDYRIEVQPGRVKAHVHYVVEHNGRPRTKRHTFSAEVHNGHVKHFHQQDEQ” the protease stability score was -0.462.
Sequence “DEQAVNEVEKMWRAIHDGDPERINKMFDPNAKFHIGNKELHGRENFATTMVKEQREIRRRVDIIRMSAHNGRITVRYRVDAEVNGEPYSNDITVSATVHNGKATDFTVHVDEDYLRKFNS” has a protease stability score of -0.004.
For “DEQDDAHKAKEFLEAVVTGNEERLRRMVDPNARIHYGDQEYHGREKIVDLMIRWRERVDHFTIDRVHSHNGRVQMDAFFTHNGRTKRFVARVVVHNGKVKSIEYTDG”, the protease stability score was 0.017.
For “DEQDEVKTLLDEIRKALETNDRERLRELVDKDAHFEYGDKKYQGSEHAARQMVEEQKNIDSQSVQLRDVQIHNGQANVDVVIEYTHNGRKRTFDAKFRFKVENGRVKLVENVQS”, the protease stability score was 0.895.
With “DEQDLKKVREFVQAQEEGDEDKLRELMDPNARVRVGDHRINGMDEIVKTDKKEVDDIKLSITDLKMHVKGDHMKVRIHQIVNHNGRPHTKTVDVVAHRHNGRLKSMERQDTK” the protease stability score was -0.122.
Sequence “DEQDLNSVKENLKAIETNNPKRVKELLDKDARAQYGDKEVHGRDEIADQQRKEREDIDIRIDWKRMNIDNGRIHMEFEVQYNFNGKPLTNKVTMRNEAHNGSIKAMFWQLSEDQQRELDS” has a protease stability score of -0.374.
For “DEQDNEKARRIMDRGDPHELNRMADKDARVQVGDKTWHGRSQFEEFVKRFHDRVDHIEVKSVHVHGNEVRVDLVVVVNGHEARFIMVASVHNGHATSLSINVTDPRVEEVLRDIFD”, the protease stability score was 0.014.
Sequence “DEQDQAKKFNDEVRKIFETGNFRQFARLLDKNVTAEVGDQEVHGKEQAHKWAEDVWRTFDHIHYNMVDVDVENGRVEVHVQLTYDHNGTTERRTYVMELKLSNGRLKIVHMKQG” has a protease stability score of 0.809.
Work on “DEQDQARKNVKTLANAIEDNDENQVHRLMDPNARLRIGDKDYHGREEAAHAMREIRETFDHIRIQVTRVRVEGDKINLIAKVNRNHNGRNEESEVDIQFVQDNGRARIVRLVDR” yielded a protease stability score of 0.554.
“DEQDQARRIVRHLLSAIRNNDPHRFQNNVDENVTLQYGDKTYNGDEDVHKYIEQFKREQKNARLRLLRLRIDNGRIDVIVRLRADHNGKEIRQIIVFHLVVRNGQARVETAHEG” showed a protease stability score of 1.17.
In the case of “DEQDQLKLAERVLKAVNDNNPQKFEELADENATVKVGDKTWHGRSHAQEMIKRFKERVDSLEIKHIDNRGNRARVHLVLEHNGRTTEMSIVVTVENGRAKAVVVHTK”, the protease stability score is reported as -0.133.
“DEQEDRDMKKMYKNLQEGDDQRVADMADPNARWRVGDKTYHGKDSIRHWAKEVHDRMHFRIQSITVQNENGKVKVEIKWVTDENGKPVDQTVQVKAELHNGHIVDIDITTQS” gave a protease stability score of 0.731.
In the case of “DEQEDRDRLEEALHAVMTGDEDRLMELADPNVEIQIGDKTFHGNTEARKVVETLKRKVDHLRVEEITKRPGSAFVIAVMEVNGKQVTVTVRIQAENGRIVHVSMNPKQLQDLKS”, the protease stability score is reported as 0.776.
Work on “DEQEERDFNRNMVEILQQGDEEKARTNMDKDAHATYGDREYHGREQLADLLKEFRDRVDHIEMKDYSVTNGRVNVVFVAVFDGKRVELHADIQFRNGRIKRMTFKFRNEEQQKKLER” yielded a protease stability score of 0.361.
For “DEQEHAKRVVRRLIDAFKDGDPKTYAQQLDPNVRIQIGDKEITGREKVREEFRTVRQRVDHVNLHVKRVDVNGDKIVVQIRVVRKHNGRTEQRTLVVEVRDHNGREVVKHVSFK”, the protease stability score was 0.884.
